Assay results published in patent EP0769025B1.

Experiments:
[1] = molecular target: monoclonal antibody AF-28; assay: competition ELISA, competitor against plate-coated 32-mer for AF-28
[2] = molecular target: monoclonal antibody AF-28; assay: competition ELISA, 32-mer as both coating (25 pmoles/ml, Figure 6b) and standard antigen

| Binder | times less competitive than the 32-mer [1] [times] | IC50 [2] [nM] |
| --- | --- | --- |
| FGVGGEEDI [… 9-mer] | 230 |  |
| FFGVGGEEDITVQTVTWPDMELPLPRNITEGE [… (FFGVG...EGE 32-mer) synthetic peptide] |  | 16 |
